Results as given in patent US20210130452A1 (Merck KGaA, published 2021).

How the values were obtained:
human IL-17A [1] = target: T1, human IL-17A (human, UniProt Q16552 24-155, biotinylated with Sulfo-NHS-LC-Biotin in the AlphaScreen assays only); assay: cell-based or functional assay
human IL-17F [2] = target: T2, human IL-17F (human, UniProt Q96PD4 31-163, biotinylated with Sulfo-NHS-LC-Biotin in the AlphaScreen assays only); assay: cell-based or functional assay
T2 sequence: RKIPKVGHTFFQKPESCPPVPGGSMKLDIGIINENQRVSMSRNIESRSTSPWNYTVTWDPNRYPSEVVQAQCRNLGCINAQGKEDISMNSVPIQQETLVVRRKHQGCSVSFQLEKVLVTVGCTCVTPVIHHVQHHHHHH

[3] = target: T3, human IL-17A/F heterodimer (human, UniProt Q16552 24-155; Q96PD4 31-163, limits assumed, biotinylated with Sulfo-NHS-LC-Biotin in the AlphaScreen assays only); assay: cell-based or functional assay
human IL-17A [4] = target: T1, human IL-17A; assay: AlphaScreen competition, hIL-17A - IL-17RA-Fc;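 also: receptor Fc-fusion plus Acceptor and streptavidin Donor beads incubated with the mixture for 1 h at room temperature before reading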
Experimental: (§1) To this mixture, the IL-17RA or IL-17RC Fc-fusions, Acceptor beads and the streptavidin Donor beads were added and further incubated for 1 hour at RT.

human IL-17A [5] = target: T1, human IL-17A; assay: AlphaScreen competition, hIL-17A - IL-17RC-Fc;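 also: Read-out after 1 h at room temperature with the receptor Fc-fusion, Acceptor beads and streptavidin-coated Donor beads present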
Experimental: as §1

human IL-17F [6] = target: T2, human IL-17F; assay: AlphaScreen competition, hIL-17F - IL-17RA-Fc
Experimental: as §1

human IL-17F [7] = target: T2, human IL-17F; assay: AlphaScreen competition, hIL-17F - IL-17RC-Fc
Experimental: as §1

human IL-17F [8] = target: T2, human IL-17F; assay: SPR Biacore, hIL-17F on chip; purified protein
Experimental: (§2) Off-rates of the periplasmic extracts containing anti-IL-17 Nanobodies were measured by Surface Plasmon Resonance (SPR) using a Biacore T100 instrument. […] Periplasmic extracts containing IL-17 neutralizing Nanobodies were injected for 2 minutes at a flow rate of 45 μl/min to allow binding to chip-bound antigen. Next, binding buffer without periplasmic extracts was sent over the chip at the same flow rate to allow spontaneous dissociation of bound Nanobody. From the sensorgrams obtained for the different periplasmic extracts koff-values (k₄) were calculated.

[9] = target: T3, human IL-17A/F heterodimer; assay: AlphaScreen competition, hIL-17A/F - IL-17RA-Fc
Experimental: as §1

[10] = target: T3, human IL-17A/F heterodimer; assay: AlphaScreen competition, hIL-17A/F - IL-17RC-Fc
Experimental: as §1

[11] = target: T3, human IL-17A/F heterodimer; assay: SPR Biacore, hIL-17A/F on chip; purified protein
human IL-17A [12] = target: T1, human IL-17A; assay: SPR Biacore, hIL-17A on chip; periplasmic extract (*)
Experimental: as §2

human IL-17A [13] = target: T4, human IL-17A (human, UniProt Q16552 24-155); assay: ELISA, coated IL-17A
T4 construct: secreted form (GenBank U32659) expressed in Hek293 with C-terminal 6-His; also called hIL-17A; IL-17A-6HIS
Experimental: (§3) Binding of a selected panel of anti-IL-17 Nanobodies to IL-17 of other species was assessed using a binding ELISA. […] HRP (horseradish peroxidase) conjugated anti-myc (Serotec, MCA 2200P) was used for detection using esTMB as substrate.

marmoset IL-17A = target: T5, marmoset IL-17A (marmoset, IL-17A is a disulfide-linked homodimer. One chain is given.); assay: ELISA, coated IL-17A
T5 chain: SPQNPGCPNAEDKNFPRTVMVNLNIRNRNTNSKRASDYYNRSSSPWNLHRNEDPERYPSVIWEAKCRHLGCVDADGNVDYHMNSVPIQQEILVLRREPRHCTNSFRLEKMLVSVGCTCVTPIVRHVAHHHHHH
Experimental: as §3

mouse IL-17A = target: T6, mouse IL-17A (mouse, UniProt Q62386 26-158); assay: ELISA, coated IL-17A
T6 sequence (looked up): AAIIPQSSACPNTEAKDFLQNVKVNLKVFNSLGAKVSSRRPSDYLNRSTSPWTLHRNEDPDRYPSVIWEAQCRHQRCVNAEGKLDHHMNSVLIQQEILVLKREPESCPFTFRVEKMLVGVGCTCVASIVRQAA
Experimental: as §3

rat IL-17A = target: T7, rat IL-17A (rat, UniProt Q61453 18-150, limits assumed); assay: ELISA, coated IL-17A
T7 sequence (looked up): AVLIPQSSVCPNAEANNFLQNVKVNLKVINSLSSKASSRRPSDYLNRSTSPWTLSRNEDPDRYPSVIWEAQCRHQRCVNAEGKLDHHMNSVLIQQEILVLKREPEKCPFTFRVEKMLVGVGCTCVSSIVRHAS
Experimental: as §3

guinea pig IL-17A = guinea pig IL-17A (guinea pig); assay: ELISA, coated IL-17A
Experimental: as §3

human IL-17F [14] = target: T8, human IL-17F (human, UniProt Q96PD4 31-163); assay: ELISA, coated IL-17F;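 also: binding ELISA on coated antigen from various species, with bound Nanobodies revealed by an HRP-linked anti-myc antibody and esTMB substrate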
T8 construct: GenBank AF384857, expressed in Hek293 as 6-His C-terminal tagged protein; also called hIL-17F; IL-17F-6HIS
T8 sequence: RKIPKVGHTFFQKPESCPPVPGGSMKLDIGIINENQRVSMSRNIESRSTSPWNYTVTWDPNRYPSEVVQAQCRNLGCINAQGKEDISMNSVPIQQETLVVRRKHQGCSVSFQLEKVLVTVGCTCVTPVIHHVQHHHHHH
Experimental: as §3

marmoset IL-17F = target: T9, marmoset IL-17F (marmoset, UniProt A6N6I9 31-163); assay: ELISA, coated IL-17F;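 also: binding ELISA on coated antigen from various species, with bound Nanobodies revealed by an HRP-linked anti-myc antibody and esTMB substrate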
T9 sequence (looked up): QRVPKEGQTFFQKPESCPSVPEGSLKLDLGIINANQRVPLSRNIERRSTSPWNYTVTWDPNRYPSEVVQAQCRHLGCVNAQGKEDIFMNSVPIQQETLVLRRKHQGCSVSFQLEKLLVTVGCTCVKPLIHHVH
Experimental: as §3

mouse IL-17F = target: T10, mouse IL-17F (mouse, UniProt Q7TNI7 29-161); assay: ELISA, coated IL-17F;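 also: binding ELISA on coated antigen from various species, with bound Nanobodies revealed by an HRP-linked anti-myc antibody and esTMB substrate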
T10 sequence (looked up): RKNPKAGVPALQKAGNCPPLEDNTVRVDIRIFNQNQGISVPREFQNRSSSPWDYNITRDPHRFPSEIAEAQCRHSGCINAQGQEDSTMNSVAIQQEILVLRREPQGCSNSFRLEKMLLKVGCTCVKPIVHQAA
Experimental: as §3

rat IL-17F = target: T11, rat IL-17F (rat, UniProt Q5BJ95 29-161); assay: ELISA, coated IL-17F;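 also: binding ELISA on coated antigen from various species, with bound Nanobodies revealed by an HRP-linked anti-myc antibody and esTMB substrate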
T11 sequence (looked up): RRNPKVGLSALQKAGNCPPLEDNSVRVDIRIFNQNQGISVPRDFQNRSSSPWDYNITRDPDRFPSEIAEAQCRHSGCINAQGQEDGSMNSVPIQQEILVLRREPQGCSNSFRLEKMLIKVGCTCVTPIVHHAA
Experimental: as §3

human IL-17A [15] = target: T4, human IL-17A; assay: SPR, IL-17A-Nanobody complex over captured IL-17RA
Text: The receptor (IL-17RA or IL-17RC) was captured via its human Fc-tail by an anti-human IgG-Fc antibody coated on the chip.

human IL-17A [16] = target: T1, human IL-17A; assay: SPR Biacore, hIL-17A on chip; purified protein
human IL-17F [17] = target: T12, human IL-17F (human, UniProt Q96PD4 31-163); assay: SPR (Biacore) off-rate
T12 construct: made in Hek293 cells (GenBank AF384857); also called hIL-17F; hIL17F
T12 sequence: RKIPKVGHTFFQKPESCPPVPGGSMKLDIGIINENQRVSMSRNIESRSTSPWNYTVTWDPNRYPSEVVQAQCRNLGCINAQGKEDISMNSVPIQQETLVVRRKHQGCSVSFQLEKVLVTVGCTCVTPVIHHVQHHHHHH

[18] = target: T13, human IL-17A/F heterodimer (human, UniProt Q16552 24-155; Q96PD4 31-163, limits assumed); assay: SPR (Biacore) off-rate
T13 construct: bought, made in E. coli (R&D Systems 5194-IL/CF); also called hIL-17A/F; hIL17A/F
T13 sequence (Q16552 24-155 limits assumed, chain 1 of 2, one chain of several): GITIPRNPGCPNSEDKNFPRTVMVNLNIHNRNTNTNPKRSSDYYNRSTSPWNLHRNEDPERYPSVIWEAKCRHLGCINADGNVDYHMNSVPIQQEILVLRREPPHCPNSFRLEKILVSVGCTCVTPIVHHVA

T1 sequence (Q16552 other isoform, or with tags, fused parts or gaps): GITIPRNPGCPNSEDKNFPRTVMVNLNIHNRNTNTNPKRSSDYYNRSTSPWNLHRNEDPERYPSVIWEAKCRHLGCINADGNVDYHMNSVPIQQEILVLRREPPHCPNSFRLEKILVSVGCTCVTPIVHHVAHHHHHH
T4 sequence (Q16552 other isoform, or with tags, fused parts or gaps): as above
T3 sequence (Q16552 24-155 limits assumed, chain 1 of 2, one chain of several): as the sequence (Q16552 24-155 limits assumed, chain 1 of 2, one chain of several) above

Binder | IL-17A-induced IL-6 production in HT-1080 cells, Emax (human IL-17A [1]) [%] | IL-17A-induced IL-6 production in HT-1080 cells, IC50 (human IL-17A [1]) [nM] | IL-17F-induced IL-6 production in HT-1080 cells, Emax (human IL-17F [2]) [%] | IL-17F-induced IL-6 production in HT-1080 cells, IC50 (human IL-17F [2]) [nM] | IL-17A/F-induced IL-6 production in HT-1080 cells, Emax [3] [%] | IL-17A/F-induced IL-6 production in HT-1080 cells, IC50 [3] [nM] | IC50 (human IL-17A [4]) [nM] | IC50 (human IL-17A [5]) [nM] | IC50 (human IL-17F [6]) [nM] | IC50 (human IL-17F [7]) [nM] | koff (human IL-17F [8]) [s⁻¹] | IC50 [9] [nM] | IC50 [10] [nM] | koff [11] [s⁻¹] | OD (mouse IL-17A) [OD] | OD (rat IL-17A) [OD] | OD (guinea pig IL-17A) [OD] | OD (human IL-17F [14]) [OD] | OD (marmoset IL-17F) [OD] | OD (rat IL-17F) [OD] | further results
10A04 (VHH, Class 4 Nanobody (cross-reactive: anti-IL-17A, IL-17F and IL-17A/F); not shown: c-myc, His6 tag) VHH: EVQLVESGGGLVQPGGSLRLSCAASGFTFSSYWMYWVRQAPGKGLEWISALAPGGGNRYYAESVNGRFTISRDNAKNSLYLQMNSLKSEDTAVYYCAKDHNVGYRTGEYDYGGQGTQVTVSS | 31.5 | 65.4 | 102 | 112 | 79.5 | 122 | 78.1 | > 250 | 0.746 | 0.22 | 0.0048 | 37.7 | 15.6 | 0.015 |  |  |  |  |  |  | koff (human IL-17A [12]): < 0.0002 s⁻¹
11A06 (VHH, Class 2) VHH: EVQLVESGGGLVQPGESLRLSCKASGFSLDYYALGWFRQAPGKEREGISCITSSDASAYYTDSVKGRFTISRDNSKNTVYLQMNSLKTEDTAIYYCAAALLTCSSYYDAYTYWGQGTQVTVSS |  |  |  |  |  |  |  |  |  |  |  |  |  |  | 0.004 | 0.008 | 0.007 | 0.673 | 0.0225 | 0.0045 | OD (human IL-17A [13]): 1.69 OD; OD (marmoset IL-17A): 1.71 OD; OD (mouse IL-17F): 0.0455 OD; % Biacore binding (IL-17A-NB)-IL-17RA (human IL-17A [15]): -0.35%
13E02 (VHH, Class 4 Nanobody (cross-reactive: anti-IL-17A, IL-17F and IL-17A/F); also called IL17MS13E02; not shown: c-myc, His6 tag) VHH: EVQLVESGGGLVQAGGSLRLSCAASGRTYDAMGWLRQAPGKEREFVAAISGSGDDTYYADSVKGRFTISKDNAGITMYLQMNSLKPEDTAVYYCATRRGLYYVWDSNDYENWGQGTQVTVSS | 102 | 3.5 | 86.5 | 104 | 108 | 21.7 | 0.067 | 0.187 | 0.395 | 0.214 | 0.0036 | 0.071 | 0.117 | 7.1e-05 |  |  |  |  |  |  | koff (human IL-17A [16]): 0.00013 s⁻¹
IL17MS3056 (VHH, variant of IL17MS16A04; Kabat numbering) VHH: EVQLVESGGGLVQPGGSLRLSCAASGRTFSSYVVGWFRQAPGKEREFVGAISGSGDSIYYAVSEKDRFTISRDNSKNTLYLQMSSLRAEDTAVYYCTADQEFGYLRFGRSEYWGQGTLVTVSS |  |  |  |  |  |  |  |  |  |  |  |  |  |  |  |  |  |  |  |  | koff (human IL-17F [17]): 0.000514 s⁻¹; koff [18]: 0.00288 s⁻¹
13B03 (VHH, Class 4 Nanobody (cross-reactive: anti-IL-17A, IL-17F and IL-17A/F); also called IL17MS13B03; not shown: c-myc, His6 tag) VHH: EVQLVESGGGSVQAGDSLRLSCAASGRANSINWFGWFRQTPGKEREFVAGIRWSDAYTEYANSVKGRFTISRDNAKNTVDLQMDSLKPEDTAVYYCVLDLSTVRYWGQGTQVTVSS | 101 | 2.9 | 85.5 | 149 | 112 | 26.8 | 0.056 | 0.202 | 2.11 | 0.848 | 0.0058 | 0.079 | 0.031 | 3.6e-05 |  |  |  |  |  |  | koff (human IL-17A [16]): 6.3e-05 s⁻¹
09G10 (VHH, Class 2) VHH: EVQLVESGGGLVQAGGSLRLSCAASDSVFTAKAVGWYRQPPGLQREWVAIITSGGKTNYADSSVKGRFTVSVDKVKNTVTLQMNSLKPEDTAVYYCYAQWMGRDYWGQGTQVTVSS |  |  |  |  |  |  |  |  |  |  |  |  |  |  | -0.001 | 0.003 | 0.006 | -0.018 | 0.0045 | 0.0025 | OD (human IL-17A [13]): 1.64 OD; OD (marmoset IL-17A): 1.58 OD; % Biacore binding (IL-17A-NB)-IL-17RA (human IL-17A [15]): 2.05%
04B09 (VHH, Class 2) VHH: EVQLVESGGGLVQPGGSLRLSCAASGFTLGYYAIGWFRQAPGKEREGVSCDSSSDGDTYYANSVKGRFTISTDNGKNTVYLQMNSLKPEDTAVYYCATCTDWNYDYWGQGTQVTVSS |  |  |  |  |  |  |  |  |  |  |  |  |  |  | 0 | 0.001 | 0.006 | -0.015 | 0.0025 | 0.0015 | 
